# Assay results: doi:10.1101/2025.04.09.647960
# Biological target: WT myostimulin (human C1orf54, residues 17-131) (human) (UniProt Q8WWF1)
# Test: RP-HPLC-MS
substance,measurement,value
"WT myostimulin (human C1orf54, residues 17-131) (from UniProt Q8WWF1 17-131) (natural protein)",stoichiometry N,2
